Assay: label from the status in PepcDB records

With “MTSQVSSTTEQADEPVVGEQRKPAGAKDVRRLDRVIIRFAGDSGDGMQLTGDRFTSETASFGNDLSTLPNFPAEIRAPAGTLPGVSSFQLHFADHDILTPGDAPNVLVAMNPAALKANVSDLPRGAEVIVNTDEFTKRAMQKVGYGTSPLEDGSLDGYSVHPVPLTTLTVEALKEFELSRKEAERSKNMFALGLLSWMYHRPTEGTEKFLTTKFAKKPAIAAANIAAFRAGWNFGETTEDFAVSYEVAPAQSAFPAGTYRNISGNLALSYGLIAASRQADLPLYLGSYPITPASDILHELSKHKNFGVRTFQAEDEIAGIGAALGAAFGGSLAVTTTSGPGVALKSETIGLAVSLELPLLVVDIQRGGPSTGLPTKTEQADLLQAMYGRNGEAPVPVVAPRTPADCFEAAIEAARIALTYRTPVFLLSDGYLANGSEPWRIPETDGLPDLRVRFAQGPNHTLDDGTEVFWPYKRDPGTLARPWAIPGTPGLEHRIGGIEKQDGTGNISYDPANHDFMVRTRQAKIDGIDVPDIEVDDPDGASALVLGWGSTYGPITAAVRRLRTAGESIAQAHLRHLNPFPSNLGAVLKGYDKVVIPEMNLGQLATLIRAKYLVDAHSYNQVNGMPFKAEQLATALKEAIDD” the protein production was “failed”.
With “MRKDEYRATLLEPNVWHIADYRGDSMYLVVGEEKALLVDTGMGEGDLKGFVRSITEKPVEVVLTHAHWDHIMQANQFEKVYLNHRDFQIIELFKINVNYENFLNVKEGDRFDLGGRTLEVIEVPGHTPGSIVLLDRENRLLFSGDSVGAGHTWMHLPGCLPLREYLKSLKKLKETDSFEKIYHGHLTGTQLKPFGPDYLDDLIKAVEGVIDGSLRGEP” the protein production was “failed”.
With “MNTPHGPLEYSLNSPFKAKGRFGRLSFAAWSFVSTLAIIGMLLVISVVFGALASDSNAIQIFGSLLLIAIYVTFLVFSVIFIIRRLHDRNHNGWFAILFFIPIINLIFIIYLLCAKGDIETNRFGAPRATPSWERVMGWIYIVLMPIVVILGVSSDAMMAYQRYTLHSKQVSDVSQMIQPVSTHNNRLS” the protein production was “failed”.
With “TPLSLTLDHWSEIRSRAHNLSVEIKKGPWRTFCASEWPTFDVGWPPEGTFDLTVIFEVKAIVFQDGPGSHPDQQPYITVWQDLVQNSPPWIK” the protein production was “not failed”.
In the case of “MKFEKRQVYYVVITFAICYAIQAYWGAVSNILTTLHKAIFPFLMGAGIAYIINIVMSVYERLYIKLFKGSRLLMAIKRSVSMILSYATFIGLIVWLFSIVIPDLISSLSSLLVIDTGALAKLVNNLNENKQISEVLNYMGTDKDLVSTLSGYSQQILKQVLSVLTNLLTSVSSIAATLLNVFVSFIFSIYVLANKEQLGRQFNLLIDTYLGSTGKTFHYVRHILHQRFHGFFVSQTLEAMILGSLTVIGMLIFQFPYALTVGVLVAFTALIPVVGAYIGVTIGFILIATESLTEAFLFVLFLILLQQFEGNVIYPKVVGGSIGLPSMWVLMAITIGGALWGILGMLLAVPVAATIYQIVKDHIIKRQTLRNCARTYR”, the protein production is reported as “failed”.
With “MTSAQAVSEGTGEAAAQAISLRTWVAVLGSVVGCFMAGMNVHVTNASLPDVRGSLGATFEEGSWITTAYLVAEIIIIPMTGWLVSVFSMRRVLMVGTAGFVLFSIACSLAPNIHSLIFARVLQGAFGGVLIPLSFQLIVTELPAARHPMGMALFAVANNVAQAAGPSLGGWLTDAYSWRWIFYLQVPPGLLLLAAIGWSVRPQPMVLAKLRQGDWGGIASMAVGLSALQIMLEEGGRYDWFASSFISHCAILATVGLLAFVAIELRREQPLINLRLLGRYNFGIASLMQFTFGAVVFGVVFLVPNYFAQIHGYNARQIGLMMIPYGLIQFVMSFATPRLMRWTSARTIIIAGFAITGIGCLMNIHLNPDASVNVIVPSLVVRGIGQSLVVVALGVMAIQGLEKDQVGSASGLFSMVRNVGGAIGIALSSQIVVEREKLHAQRIGESVSLFAQATQERLVELVRLLAQAPVEYATALHSAALAPLRQQALGMVDKVLHRDALLLAYSDAFLLAGLAMLLCVVAGVLLRRA” the protein production was “failed”.
In the case of “MVAIDYVVIGAGYAGLMCAEALMDKGFKTLVFDMRESGGEIVVFSKLEEFRSKYEKYIEKIEEIRKDIPVDIGTVIKSKPVIINSGNGLKRYEARRVILATGATDTAPVKLNVLSKKIEGIYTLENALREISENNKIGEKVLIAAKDDVIVKLAESQLSDLGYDVEISELTNDIQVIGKERVEGVEISGVRYSCDTLVVYGGRNPFNPLKLRGTPVGNVVTCTYDYSKVEENVKNFLAKILEHHHHHH”, the protein production is reported as “failed”.
For “MQDILFDFISTYISLTEDEKNALLSLDLFRSVPKGTILLKEGQKSQESYFVLKGCIRIYYIIDGEEKTTAFYTEMDALTPPCVIHNAPSEYFISCIEDSILTVSNLEMEAEINSKFPKFELMCRMLSEELLAKQQIDFDAFKTSSPEQRYLNVLQNRPDLIQRVPQHQLASFLGIKPQSLSRLRARIVDKKS”, the protein production was “not failed”.
With “MTEPTHKKQFSLRTAVMLPFIAVLLVTLSIVFYTQNNSYEKLVGDVSEKVLASYTQNTHADLNIFLNAPNFAVKSMVNQIQRYQMYHPNDTKQLQQFLKDSLEGIYTGLEQMDVLSFGGEKKEYIGFRREPNASLSLMLQDKRTNDDLIIYRGSEMSDNIRTVIANYDPRSRPWYKPAATTFKPSWSKIYTNADEKKEITISTMHPVFYDEDFIGVFAADVKLDSFNKFLSQETKHTKGVIYLIDDQQRLIAHSSVGSVLSIGTQNSPVGSRLFAVESCDETIQQSATYIKNNQLINNKNNDAEVFSFYYKGERYFSQITPYIDGNNLNWYIVISISESDLLGHLQEEQRRGLFFGIVLAAIGLIVGVYLVTQVTKPIFTTANAARNIASGNWNNNVEAQGSIYETTLLMNAFNDMTNKLQSSFDAMRQQITFDSLTQVLSRQGLIEQCRIMLDKKEHYEQGLLVIGINNFRDINDSFGILEGDQLLKNISDRLQCSFAHDNIAIARVGGDEFALFFSKLDDVEQLKQYARDMEGCFMTPFRVASNNSLLSISTGLVYGDLSCDSMTLWLRNASIALGQAKKNNLNMSLYTPEMAEASLHKANMTAELSLAIKNKELVPFYQPIIDIKSGKTIGAEALIRWLSPQRGMVSPLDFIPLAEENGMIIPMGSQVLTQACLDTVERIDQGLWPADFHMHVNLSVCQLTQNNFLDELKAVLHNTSMAPENLTLEITESRLVNHDNSTINTMQKIRDLGVQIAIDDFGTGYSSLAYIHKLPFDVLKVDRSFIKDLTAENIDSSIAAAVCNMTQGFDITLVAEGIETQEQAKLLASLNYHHAQGFLYSRPIPLEDWPTE” the protein production was “failed”.
In the case of “MADALKIGIAGLGTVGASLVRIIQQKSNELAVTCGRPITITAVSARDKTRDRGVDLSAVAWFDRPEDLAEKGDIDVFVELMGGAEGAANVSVRAALQRGLHVVTANKALLAYHGVELATIAEEKGSLLNFEAAVAGGIPVIKALRESLTGNAVSRIYGIMNGTCNYILTKMEKEGLSFAECLKEAQRLGYAEADPAFDIEGNDTAHKLAILTTLAFGNRIAADDIYLEGITNISIEDIHAAAELGYRIKLLGVAQRTETGIEQRVHPTMVPVDSVIAQVDGITNAVAIESDVLGELLMVGPGAGGNATASSVLGDIADIAKSQPGAQRVPVLGHPAKALEPYRKAQMQSHEGGYFIRLTVLDRTGVFASVATRMAENHISLESIVQRSTQHLAPSHHQTIILVTHATMEESVRKAVASIRSEGYLFGEPQVIRIERPKEEA”, the protein production is reported as “failed”.
With “MKELNLTQGSVPKVLLQYAVPFLIANVLQALYGGADLFVVGQYDDSASVAAVAIGSQVMQTITGIILGITTGTTVLIAIATGAKDDKKVAFTIGSSVWLFSIIGVLLTLVMVVFHGRIAELMHTPIEAMADTKSYILVCSAGILFIVGYNVVCGILRGLGDSKTPLYFVALACVINIVLDFILVGYFHLGATGAAVATITAQGVSFMISLWFLYRHGFHFEFTRKDIRLNRNLAKKVMTLGAPIALQDALINISFLIITVIVNQMGVIASASLGVVEKIIVFAMLPPMAISSAVATMTAQNYGAGLIQRMNRCLASGIGIAFVFGVSVCVYSQFLPETLTAFFTKDAAVVSMAAEYLRGYSIDCIVVSFVFCINSYFSGQGNSLFPMIHSLIATFLFRIPLSYWFSQIDSSSLFIMGFAPPLSTVVSLLICIWYLRYTRKKVYLKGTMMPAMSN” the protein production was “failed”.
For “MQYATLELNNAFKVLFSLRQVQAAEMVIAPGDREGGPDNRHRGADQWLFVVDGAGEAIVDGHTQALQAGSLIAIERGQAHEIRNTGDTPLKTVNFYHPPAYDAQGEPLPAGEG”, the protein production was “not failed”.
For “MWIAVSAVNLALAVILGAFGAHGLKAYASPAKLAWWQTATDYFFYHALGLLVLGVISKTYTVLPIKSSFILIQIGILFFCGSLYLMALGLPRGFGAITPIGGAFMILGWIVLAWNAVKYAK”, the protein production was “failed”.

Reference: a protein production outcome set (Wang et al. 2014)
